According to article PMC9352680, “A comprehensive thermodynamic model for RNA binding by the Saccharomyces cerevisiae Pumilio protein PUF4”:

Molecular target: T1, PUF4 RNA-binding domain (Saccharomyces cerevisiae, UniProt P25339 537-888)
T1 sequence: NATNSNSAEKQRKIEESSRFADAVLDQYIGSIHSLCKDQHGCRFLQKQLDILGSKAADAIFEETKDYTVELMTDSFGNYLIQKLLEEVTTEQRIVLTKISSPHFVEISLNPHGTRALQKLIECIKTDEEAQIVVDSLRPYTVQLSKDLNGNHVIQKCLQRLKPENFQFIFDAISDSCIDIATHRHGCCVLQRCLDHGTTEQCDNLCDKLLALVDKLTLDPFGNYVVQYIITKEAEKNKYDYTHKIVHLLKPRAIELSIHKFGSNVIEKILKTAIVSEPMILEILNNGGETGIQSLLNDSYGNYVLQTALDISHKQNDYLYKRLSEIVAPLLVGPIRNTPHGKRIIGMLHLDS
Experiment: Mg; RNA-MaP; 20 mM Na-HEPES pH 7.4, 30 mM KOAc, 0.75 mM MgCl2, 0.1% Tween-20, 5% glycerol, 0.1 mg/mL BSA, 2 mM DTT; 25 C; 0.0125-409.6 nM protein
Settings: tags: N-His6-TEV cleaved; C-SNAP kept, Cy3B-labelled; label: tethered on chip by stalled RNA polymerase

B1: Id_ii_S1_P5E.4_K5.3_C5.2_[C-2A]_H5.3_A5.1_F5.1_T5.2_[T11C]_[A12G] (ssRNA)
RNA: UCUCUUAUACACUUAUUACGUCUCUU
  Kd: 907 nM

B2: Id_ii_S1_P5E.4_K5.3_C5.2_[C-2A]_H5.3_A5.1_F5.1_T5.2_[T11C]_[A12C] (ssRNA)
RNA: UCUCUUAUACACUUAUUACCUCUCUU
  Kd: 606 nM

B3: Id_ii_S1_P5E.4_K5.3_C5.2_[C-2A]_H5.3_A5.1_F5.1_T5.2_[T11C]_[A12T] (ssRNA)
RNA: UCUCUUAUACACUUAUUACUUCUCUU
  Kd: 666 nM

B4: Id_ii_S1_P5E.4_K5.3_C5.2_[C-2A]_H5.3_A5.1_F5.1_T5.2_[T11C] (ssRNA)
RNA: UCUCUUAUACACUUAUUACAUCUCUU
  Kd: 489 nM

B5: Id_ii_S1_P5E.4_K5.3_C5.2_[C-2A]_H5.3_A5.1_F5.1_T5.2_[T11A]_[A12C] (ssRNA)
RNA: UCUCUUAUACACUUAUUAACUCUCUU
  Kd: 464 nM

B6: Id_ii_S1_P5E.4_K5.3_C5.2_[C-2A]_H5.3_A5.1_F5.1_T5.2_[T11A]_[A12T] (ssRNA)
RNA: UCUCUUAUACACUUAUUAAUUCUCUU
  Kd: 517 nM

B7: Id_ii_S1_P5E.4_K5.3_C5.2_[C-2A]_H5.3_A5.1_F5.1_T5.2_[T11A] (ssRNA)
RNA: UCUCUUAUACACUUAUUAAAUCUCUU
  Kd: 744 nM

B8: Id_ii_S1_P5E.4_K5.3_C5.2_[C-2A]_H5.3_A5.1_F5.1_T5.2_[A12C] (ssRNA)
RNA: UCUCUUAUACACUUAUUAUCUCUCUU
  Kd: 435 nM

B9: Id_ii_S1_P5E.4_K5.3_C5.2_[C-2A]_H5.3_A5.1_F5.1_T5.2_[A12T] (ssRNA)
RNA: UCUCUUAUACACUUAUUAUUUCUCUU
  Kd: 517 nM

B10: Id_ii_S1_P5E.4_K5.3_C5.2_[C-2A]_H5.3_A5.1_F5.1_T5.2 (ssRNA)
RNA: UCUCUUAUACACUUAUUAUAUCUCUU
  Kd: 330 nM

B11: Ic_S1_P5E.1_K5.1_C5.1_H5.1_A5.1_F5.1_[T9C]_[A10T]_T5.1 (ssRNA)
RNA: UCUCUUUGUAUUAUCUUCUCUU
  Kd: 18 nM

B12: Id_ii_S1_P5E.4_K5.3_C5.2_[T-1G]_H5.3_A5.1_F5.1_T5.2_[T11C]_[A12T] (ssRNA)
RNA: UCUCUUCGACACUUAUUACUUCUCUU
  Kd: > 2300 nM

B13: Id_ii_S1_P5E.4_K5.3_C5.2_[T-1G]_H5.3_A5.1_F5.1_T5.2_[T11A]_[A12C] (ssRNA)
RNA: UCUCUUCGACACUUAUUAACUCUCUU
  Kd: > 2300 nM

B14: Id_ii_S1_P5E.4_K5.3_C5.2_[T-1G]_H5.3_A5.1_F5.1_T5.2_[T11A]_[A12T] (ssRNA)
RNA: UCUCUUCGACACUUAUUAAUUCUCUU
  Kd: > 2300 nM

B15: Id_ii_S1_P5E.4_K5.3_C5.2_[T-1G]_H5.3_A5.1_F5.1_T5.2_[T11A] (ssRNA)
RNA: UCUCUUCGACACUUAUUAAAUCUCUU
  Kd: > 2300 nM

B16: Id_ii_S1_P5E.4_K5.3_C5.2_[T-1G]_H5.3_A5.1_F5.1_T5.2_[A12C] (ssRNA)
RNA: UCUCUUCGACACUUAUUAUCUCUCUU
  Kd: > 2300 nM

B17: Id_ii_S1_P5E.4_K5.3_C5.2_[T-1G]_H5.3_A5.1_F5.1_T5.2_[A12T] (ssRNA)
RNA: UCUCUUCGACACUUAUUAUUUCUCUU
  Kd: > 2300 nM

B18: Id_ii_S1_P5E.4_K5.3_C5.2_[T-1C]_H5.3_A5.1_F5.1_T5.2_[T11G]_[A12C] (ssRNA)
RNA: UCUCUUCCACACUUAUUAGCUCUCUU
  Kd: > 2300 nM

B19: Id_ii_S1_P5E.4_K5.3_C5.2_[T-1C]_H5.3_A5.1_F5.1_T5.2_[T11C]_[A12G] (ssRNA)
RNA: UCUCUUCCACACUUAUUACGUCUCUU
  Kd: > 2300 nM

B20: Id_ii_S1_P5E.4_K5.3_C5.2_[T-1C]_H5.3_A5.1_F5.1_T5.2_[T11C]_[A12C] (ssRNA)
RNA: UCUCUUCCACACUUAUUACCUCUCUU
  Kd: > 2300 nM

B21: Id_ii_S1_P5E.4_K5.3_C5.2_[T-1C]_H5.3_A5.1_F5.1_T5.2_[T11C]_[A12T] (ssRNA)
RNA: UCUCUUCCACACUUAUUACUUCUCUU
  Kd: > 2300 nM

B22: Ic_S1_P5E.1_K5.1_C5.1_H5.1_A5.1_F5.1_[T9A]_[A10G]_T5.1 (ssRNA)
RNA: UCUCUUUGUAUUAUAGUCUCUU
  Kd: 0.924 nM

B23: Id_ii_S1_P5E.4_K5.3_C5.2_[T-1C]_H5.3_A5.1_F5.1_T5.2_[T11C] (ssRNA)
RNA: UCUCUUCCACACUUAUUACAUCUCUU
  Kd: > 2300 nM

B24: Id_ii_S1_P5E.4_K5.3_C5.2_[T-1C]_H5.3_A5.1_F5.1_T5.2_[T11A]_[A12C] (ssRNA)
RNA: UCUCUUCCACACUUAUUAACUCUCUU
  Kd: > 2300 nM

B25: Id_ii_S1_P5E.4_K5.3_C5.2_[T-1C]_H5.3_A5.1_F5.1_T5.2_[T11A]_[A12T] (ssRNA)
RNA: UCUCUUCCACACUUAUUAAUUCUCUU
  Kd: > 2300 nM

B26: Id_ii_S1_P5E.4_K5.3_C5.2_[T-1C]_H5.3_A5.1_F5.1_T5.2_[T11A] (ssRNA)
RNA: UCUCUUCCACACUUAUUAAAUCUCUU
  Kd: > 2300 nM

B27: Id_ii_S1_P5E.4_K5.3_C5.2_[T-1C]_H5.3_A5.1_F5.1_T5.2 (ssRNA)
RNA: UCUCUUCCACACUUAUUAUAUCUCUU
  Kd: > 2300 nM

B28: Id_ii_S1_P5E.4_K5.3_C5.2_[T-1A]_H5.3_A5.1_F5.1_T5.2_[T11G]_[A12C] (ssRNA)
RNA: UCUCUUCAACACUUAUUAGCUCUCUU
  Kd: > 2300 nM

B29: Id_ii_S1_P5E.4_K5.3_C5.2_[T-1A]_H5.3_A5.1_F5.1_T5.2_[T11G] (ssRNA)
RNA: UCUCUUCAACACUUAUUAGAUCUCUU
  Kd: > 2300 nM

B30: Id_ii_S1_P5E.4_K5.3_C5.2_[T-1A]_H5.3_A5.1_F5.1_T5.2_[T11C]_[A12C] (ssRNA)
RNA: UCUCUUCAACACUUAUUACCUCUCUU
  Kd: > 2300 nM

B31: Id_ii_S1_P5E.4_K5.3_C5.2_[T-1A]_H5.3_A5.1_F5.1_T5.2_[T11C] (ssRNA)
RNA: UCUCUUCAACACUUAUUACAUCUCUU
  Kd: > 2300 nM
